The values below come from patent US20140194361A1, “Vault Agents for Treating Chronic Kidney Disease” (priority 2010, published 2014).

In the experiment the target is α5β1 integrin receptor on primary mesangial cells. Put plainly: cell-based or functional assay.

Turning to “D-vault (CGRGDSP peptide-INT packaged in purified vault)”, the inhibition of attachment of MC to fibronectin compared to untreated MC amounted to 1.7 fold.
